Data: the supplement of paper PMC10065799, “High-throughput profiling of sequence recognition by tyrosine kinases and SH2 domains using bacterial peptide display” (eLife, 2023)

Experiments:
Hck = Hck (UniProt P08631); experiment: phosphorylation enrichment, bacterial display (enrichment ratio); higher = better substrate or ligand; peptides without Tyr show the background
AncSZ = experiment: as above
Fer (mouse) = experiment: as above
Fes = Fes (UniProt P07332); experiment: as above
MERTK = MERTK (UniProt Q12866); experiment: as above
MERTK, sequence (Q12866 whole entry, looked up): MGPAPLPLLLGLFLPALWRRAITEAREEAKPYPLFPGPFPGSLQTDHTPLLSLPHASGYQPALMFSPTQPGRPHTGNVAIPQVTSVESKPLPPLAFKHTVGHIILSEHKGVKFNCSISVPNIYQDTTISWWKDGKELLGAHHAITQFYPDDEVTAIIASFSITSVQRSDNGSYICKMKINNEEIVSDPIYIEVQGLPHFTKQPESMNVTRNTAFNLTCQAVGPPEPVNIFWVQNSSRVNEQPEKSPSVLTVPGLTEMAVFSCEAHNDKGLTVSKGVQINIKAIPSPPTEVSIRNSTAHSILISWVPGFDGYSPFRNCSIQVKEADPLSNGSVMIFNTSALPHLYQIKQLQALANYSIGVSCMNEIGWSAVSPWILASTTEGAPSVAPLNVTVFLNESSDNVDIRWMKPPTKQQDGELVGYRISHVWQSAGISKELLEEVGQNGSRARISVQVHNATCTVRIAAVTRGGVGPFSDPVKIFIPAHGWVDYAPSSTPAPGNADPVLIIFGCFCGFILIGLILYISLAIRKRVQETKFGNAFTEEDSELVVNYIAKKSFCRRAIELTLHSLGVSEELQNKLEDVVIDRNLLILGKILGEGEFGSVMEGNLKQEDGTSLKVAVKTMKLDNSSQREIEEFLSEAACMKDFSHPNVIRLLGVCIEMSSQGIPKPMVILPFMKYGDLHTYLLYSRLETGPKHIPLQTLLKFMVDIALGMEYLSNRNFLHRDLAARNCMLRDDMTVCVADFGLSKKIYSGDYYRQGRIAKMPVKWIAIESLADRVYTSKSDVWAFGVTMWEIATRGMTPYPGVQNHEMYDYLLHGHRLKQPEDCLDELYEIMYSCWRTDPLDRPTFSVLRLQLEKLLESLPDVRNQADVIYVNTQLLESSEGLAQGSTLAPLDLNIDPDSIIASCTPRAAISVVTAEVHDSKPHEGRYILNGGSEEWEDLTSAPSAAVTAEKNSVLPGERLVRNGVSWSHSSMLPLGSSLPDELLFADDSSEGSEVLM

FGFR1 = FGFR1 (UniProt P11362); experiment: as above
c-Abl (mouse) = experiment: as above
EPHB1 = EPHB1 (UniProt P54762); experiment: as above
EPHB1, sequence (P54762 whole entry, looked up): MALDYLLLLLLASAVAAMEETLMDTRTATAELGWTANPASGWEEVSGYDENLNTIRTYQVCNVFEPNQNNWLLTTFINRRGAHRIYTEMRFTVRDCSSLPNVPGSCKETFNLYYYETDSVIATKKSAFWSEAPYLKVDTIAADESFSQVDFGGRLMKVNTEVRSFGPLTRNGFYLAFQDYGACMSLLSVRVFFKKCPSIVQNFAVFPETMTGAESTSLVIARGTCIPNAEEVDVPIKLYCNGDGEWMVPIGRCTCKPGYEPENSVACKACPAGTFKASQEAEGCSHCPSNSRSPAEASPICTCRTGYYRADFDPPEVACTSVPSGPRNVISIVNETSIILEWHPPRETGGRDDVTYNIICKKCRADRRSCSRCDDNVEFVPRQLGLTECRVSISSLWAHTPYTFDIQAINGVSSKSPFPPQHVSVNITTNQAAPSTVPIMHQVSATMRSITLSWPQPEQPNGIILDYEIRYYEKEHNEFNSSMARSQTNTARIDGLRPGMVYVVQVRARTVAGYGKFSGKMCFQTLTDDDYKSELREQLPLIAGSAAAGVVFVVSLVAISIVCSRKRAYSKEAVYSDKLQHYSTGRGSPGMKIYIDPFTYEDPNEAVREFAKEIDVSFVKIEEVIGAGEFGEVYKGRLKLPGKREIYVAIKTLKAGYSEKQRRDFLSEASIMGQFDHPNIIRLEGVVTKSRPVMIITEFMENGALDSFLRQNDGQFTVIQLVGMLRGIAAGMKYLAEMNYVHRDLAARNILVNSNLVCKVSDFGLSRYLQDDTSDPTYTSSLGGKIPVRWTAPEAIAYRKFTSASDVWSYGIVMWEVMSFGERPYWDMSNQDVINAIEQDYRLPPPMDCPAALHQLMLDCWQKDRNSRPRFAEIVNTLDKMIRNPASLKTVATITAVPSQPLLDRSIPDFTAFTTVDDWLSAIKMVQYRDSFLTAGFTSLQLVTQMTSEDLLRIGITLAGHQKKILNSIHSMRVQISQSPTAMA

Jak2 = Jak2 (UniProt O60674); experiment: as above
Jak2, sequence (O60674 whole entry, looked up): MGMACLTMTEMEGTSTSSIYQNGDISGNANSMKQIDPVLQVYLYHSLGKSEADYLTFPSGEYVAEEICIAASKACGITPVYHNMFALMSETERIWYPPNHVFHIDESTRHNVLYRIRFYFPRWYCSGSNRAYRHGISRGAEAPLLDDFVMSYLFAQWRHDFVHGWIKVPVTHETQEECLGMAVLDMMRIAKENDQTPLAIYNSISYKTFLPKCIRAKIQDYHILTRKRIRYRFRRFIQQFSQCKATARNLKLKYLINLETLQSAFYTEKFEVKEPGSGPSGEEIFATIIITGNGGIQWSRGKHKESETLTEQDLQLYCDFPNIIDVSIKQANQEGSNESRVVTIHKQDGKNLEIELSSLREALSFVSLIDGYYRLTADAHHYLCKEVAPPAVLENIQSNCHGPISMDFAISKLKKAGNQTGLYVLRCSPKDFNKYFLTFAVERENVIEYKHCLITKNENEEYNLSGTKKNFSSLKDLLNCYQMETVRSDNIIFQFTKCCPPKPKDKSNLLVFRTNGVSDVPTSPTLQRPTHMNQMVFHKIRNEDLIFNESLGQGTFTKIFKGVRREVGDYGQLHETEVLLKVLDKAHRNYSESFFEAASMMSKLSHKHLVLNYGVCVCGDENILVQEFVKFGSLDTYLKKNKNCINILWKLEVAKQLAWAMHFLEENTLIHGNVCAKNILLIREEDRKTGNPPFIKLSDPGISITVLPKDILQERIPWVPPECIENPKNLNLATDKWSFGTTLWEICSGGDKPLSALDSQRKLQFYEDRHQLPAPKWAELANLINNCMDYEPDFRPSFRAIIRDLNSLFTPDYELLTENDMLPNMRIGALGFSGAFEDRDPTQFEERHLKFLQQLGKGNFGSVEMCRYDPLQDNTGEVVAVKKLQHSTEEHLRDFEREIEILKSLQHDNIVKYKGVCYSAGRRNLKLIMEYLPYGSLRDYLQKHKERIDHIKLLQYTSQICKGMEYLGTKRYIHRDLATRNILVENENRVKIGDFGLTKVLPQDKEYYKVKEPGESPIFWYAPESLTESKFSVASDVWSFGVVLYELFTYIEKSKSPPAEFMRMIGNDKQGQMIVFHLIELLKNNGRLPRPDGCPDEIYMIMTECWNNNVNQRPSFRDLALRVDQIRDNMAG

c-Src = experiment: as above
EPHB2 = EPHB2 (UniProt P29323); experiment: as above
FGFR3 = FGFR3 (UniProt P22607); experiment: as above
FGFR3, sequence (P22607 whole entry, looked up): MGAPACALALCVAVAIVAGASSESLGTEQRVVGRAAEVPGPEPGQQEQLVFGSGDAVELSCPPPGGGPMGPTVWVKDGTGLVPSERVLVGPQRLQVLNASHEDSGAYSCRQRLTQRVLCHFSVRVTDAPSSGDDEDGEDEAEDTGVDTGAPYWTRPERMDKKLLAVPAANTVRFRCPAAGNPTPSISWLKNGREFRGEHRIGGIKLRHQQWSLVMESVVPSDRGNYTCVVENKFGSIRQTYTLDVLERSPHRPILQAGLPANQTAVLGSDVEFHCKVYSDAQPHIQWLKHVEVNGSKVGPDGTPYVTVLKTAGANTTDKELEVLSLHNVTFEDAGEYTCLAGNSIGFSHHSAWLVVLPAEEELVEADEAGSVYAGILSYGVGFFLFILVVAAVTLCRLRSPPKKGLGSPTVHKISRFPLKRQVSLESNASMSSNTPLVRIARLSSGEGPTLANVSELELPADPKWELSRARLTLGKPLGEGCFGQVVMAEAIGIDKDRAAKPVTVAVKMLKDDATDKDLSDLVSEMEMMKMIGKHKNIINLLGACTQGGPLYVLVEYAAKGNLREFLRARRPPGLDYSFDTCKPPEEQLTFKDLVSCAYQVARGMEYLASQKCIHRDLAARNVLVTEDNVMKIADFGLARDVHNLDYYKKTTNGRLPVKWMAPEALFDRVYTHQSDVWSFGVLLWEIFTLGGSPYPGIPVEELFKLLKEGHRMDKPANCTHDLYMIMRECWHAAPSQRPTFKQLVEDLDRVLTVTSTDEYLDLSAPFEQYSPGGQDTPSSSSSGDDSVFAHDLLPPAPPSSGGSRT

Fyn = Fyn (UniProt P06241); experiment: as above
Fyn, sequence (P06241 whole entry, looked up): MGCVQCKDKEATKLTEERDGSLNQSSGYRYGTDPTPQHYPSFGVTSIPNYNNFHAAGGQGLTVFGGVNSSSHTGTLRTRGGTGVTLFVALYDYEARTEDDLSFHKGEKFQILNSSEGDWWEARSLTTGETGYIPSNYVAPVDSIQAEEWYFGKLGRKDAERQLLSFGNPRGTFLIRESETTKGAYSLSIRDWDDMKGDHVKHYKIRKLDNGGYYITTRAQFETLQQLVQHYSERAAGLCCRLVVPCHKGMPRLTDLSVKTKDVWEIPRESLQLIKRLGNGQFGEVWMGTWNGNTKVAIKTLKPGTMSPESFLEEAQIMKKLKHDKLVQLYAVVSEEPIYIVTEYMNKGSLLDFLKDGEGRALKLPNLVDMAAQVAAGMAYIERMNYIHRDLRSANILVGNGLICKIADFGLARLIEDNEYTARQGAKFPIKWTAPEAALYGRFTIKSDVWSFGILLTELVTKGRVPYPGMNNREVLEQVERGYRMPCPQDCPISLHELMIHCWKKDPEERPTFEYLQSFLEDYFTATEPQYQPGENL

c-Src SH2 = experiment: SH2 binding enrichment of the phosphorylated peptide, bacterial display (enrichment ratio); higher = better substrate or ligand; peptides without Tyr show the background
Grb2 SH2 = Grb2 SH2 (UniProt P62993); experiment: as above
SHP2-C SH2 = experiment: as above
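Wherever SH2 binding enrichment of the phosphorylated peptide, bacterial display is given: peptide library displayed on the E. coli surface as eCPX fusions, selected cells deep-sequenced, score is each peptide's frequency after selection divided by its frequency in the input.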
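Wherever phosphorylation enrichment, bacterial display is given: 11-residue human phosphosite peptides and single-mutation variants displayed on the E. coli surface, counted by deep sequencing, each peptide's frequency after selection divided by its frequency in the unselected input library; frequency after pTyr selection over input frequency; kinase dosed for 20-30% of maximal phosphorylation in three min.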

Hck, sequence (P08631 whole entry, looked up): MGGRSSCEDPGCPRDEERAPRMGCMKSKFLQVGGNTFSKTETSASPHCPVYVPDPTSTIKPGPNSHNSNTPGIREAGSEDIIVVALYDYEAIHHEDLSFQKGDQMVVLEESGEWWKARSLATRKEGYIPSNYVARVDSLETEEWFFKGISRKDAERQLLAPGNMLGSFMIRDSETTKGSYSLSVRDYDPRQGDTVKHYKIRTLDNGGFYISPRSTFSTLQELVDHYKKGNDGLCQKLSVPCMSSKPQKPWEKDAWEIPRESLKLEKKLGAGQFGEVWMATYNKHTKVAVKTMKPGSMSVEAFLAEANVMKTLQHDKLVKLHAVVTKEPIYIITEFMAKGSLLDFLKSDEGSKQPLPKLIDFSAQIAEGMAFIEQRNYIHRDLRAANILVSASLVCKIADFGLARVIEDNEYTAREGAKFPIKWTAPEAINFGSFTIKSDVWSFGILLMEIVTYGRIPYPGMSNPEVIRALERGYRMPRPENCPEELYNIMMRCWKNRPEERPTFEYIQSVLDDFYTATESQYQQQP

SH2 binding enrichment (c-Src SH2) | SH2 binding enrichment (Grb2 SH2) | SH2 binding enrichment (SHP2-C SH2) | Sequence | phosphorylation enrichment (Hck) | phosphorylation enrichment (AncSZ) | phosphorylation enrichment (Fer (mouse)) | phosphorylation enrichment (Fes) | phosphorylation enrichment (MERTK) | phosphorylation enrichment (FGFR1) | phosphorylation enrichment (c-Abl (mouse)) | phosphorylation enrichment (EPHB1) | phosphorylation enrichment (Jak2) | phosphorylation enrichment (c-Src) | phosphorylation enrichment (EPHB2) | phosphorylation enrichment (FGFR3) | phosphorylation enrichment (Fyn)
0.471 | 0.739 | 0.568 | PFFTSYPPSPD [GDAP2_Y491_YF] | 0.356 | 0.907 | 0.507 | 1.15 | 0.629 | 0.557 | 0.901 | 0.438 | 1.14 | 0.588 | 0.447 | 0.644 | 0.498
0.579 | 0.791 | 0.873 | FLQTDYTSQVS [FRMPD1_Y846] | 0.417 | 1.03 | 0.451 | 0.805 | 0.386 | 0.442 | 0.565 | 0.37 | 0.732 | 0.428 | 0.44 | 0.538 | 0.404
0.574 | 0.825 | 0.753 | NPSFNYEIVNR [DYNC1H1_Y3379_YF] | 0.535 | 1.15 | 0.514 | 1.19 | 0.387 | 0.488 | 0.588 | 2.91 | 1.1 | 0.388 | 1.29 | 0.666 | 0.445
0.857 | 0.905 | 0.689 | QQPGPYDRPGA [HNRNPH2_Y210_R206Q] | 0.662 | 0.683 | 0.551 | 1.39 | 0.599 | 0.66 | 0.567 | 0.528 | 0.643 | 0.577 | 0.493 | 0.619 | 0.565
1.05 | 0.924 | 0.967 | TTICKYSTPME [GUCY2C_Y839] | 0.413 | 0.798 | 0.351 | 0.801 | 0.446 | 0.608 | 0.63 | 0.395 | 0.756 | 0.474 | 0.488 | 0.567 | 0.35
1.26 | 0.935 | 0.693 | KIKGWYEKCEP [KRT26_Y119] | 0.527 | 0.996 | 0.541 | 1.21 | 0.446 | 0.515 | 0.786 | 0.594 | 1.07 | 0.47 | 0.573 | 0.779 | 0.442
0.626 | 0.674 | 0.885 | EVESPYEVRDY [GIGYF2_Y1168_H1171R] | 1.48 | 1.23 | 5.62 | 1.29 | 0.554 | 0.542 | 0.765 | 0.785 | 1.16 | 4.71 | 0.752 | 0.751 | 5.17
0.484 | 0.98 | 0.775 | RDHYGYRQSVT [CD55_Y245] | 0.806 | 1.22 | 0.748 | 0.794 | 0.774 | 0.747 | 0.794 | 0.883 | 0.455 | 0.822 | 0.472 | 0.339 | 0.866
2.12 | 0.777 | 0.759 | SFTDPYAQPSL [KMT2D_Y2378_P2382S_YF] | 0.581 | 0.743 | 0.447 | 0.806 | 0.429 | 0.508 | 0.747 | 0.47 | 0.689 | 0.447 | 0.526 | 0.67 | 0.481
0.539 | 0.806 | 1.22 | HSSPVYVGRVV [TGM2_Y219_R214H] | 6.86 | 1.85 | 1.63 | 1.97 | 1.5 | 1.37 | 1.17 | 2.08 | 1 | 1.57 | 1.47 | 1.24 | 3
0.531 | 0.662 | 0.824 | GQSKGYRPKLY [SIPA1L3_Y1376] | 0.4 | 0.43 | 0.411 | 0.489 | 0.431 | 0.357 | 0.329 | 0.316 | 0.416 | 0.387 | 0.393 | 0.454 | 0.45
0.898 | 1.47 | 1.73 | RWHEGYRQTPK [CD44_Y412] | 0.429 | 0.66 | 0.367 | 0.678 | 0.356 | 0.405 | 0.418 | 0.407 | 0.607 | 0.361 | 0.589 | 0.595 | 0.418
1.55 | 0.732 | 10 | SSAAGYACLAF [MVD_Y131_YF] | 0.585 | 0.948 | 0.493 | 1.07 | 0.538 | 0.446 | 0.946 | 0.536 | 0.919 | 0.494 | 0.455 | 0.763 | 0.428
0.591 | 0.732 | 0.554 | HNLDYYKKTTN [FGFR3_Y648] | 0.58 | 0.829 | 0.539 | 1.2 | 0.423 | 0.694 | 0.817 | 0.696 | 0.632 | 0.373 | 0.59 | 0.648 | 0.653
0.529 | 0.734 | 0.751 | SHLSAFPALEG [CD5_Y465_Y465F] | 0.402 | 0.553 | 0.312 | 0.612 | 0.347 | 0.354 | 0.407 | 0.431 | 0.5 | 0.328 | 0.367 | 0.52 | 0.352
0.837 | 1.22 | 0.889 | CTTIHCNFMCN [TP53_Y234_Y234C_YF] | 0.446 | 0.782 | 0.454 | 0.869 | 0.441 | 0.45 | 0.629 | 0.67 | 0.862 | 0.441 | 0.546 | 0.574 | 0.419

SH2 binding enrichment (c-Src SH2) | SH2 binding enrichment (Grb2 SH2) | SH2 binding enrichment (SHP2-C SH2) | Sequence | phosphorylation enrichment (Hck) | phosphorylation enrichment (AncSZ) | phosphorylation enrichment (Fer (mouse)) | phosphorylation enrichment (Fes) | phosphorylation enrichment (MERTK) | phosphorylation enrichment (FGFR1) | phosphorylation enrichment (c-Abl (mouse)) | phosphorylation enrichment (EPHB1) | phosphorylation enrichment (Jak2) | phosphorylation enrichment (c-Src) | phosphorylation enrichment (EPHB2) | phosphorylation enrichment (FGFR3) | phosphorylation enrichment (Fyn)
0.383 | 0.746 | 0.552 | TGVWDYIHVVD [GALE_Y241_R239W] | 0.566 | 1.43 | 0.493 | 1.43 | 0.433 | 0.684 | 0.966 | 0.756 | 1.39 | 0.471 | 0.588 | 0.916 | 0.47
0.498 | 0.734 | 0.719 | VRFMAYTDETF [F8_Y450] | 0.487 | 1.04 | 0.494 | 1.19 | 0.456 | 0.608 | 0.789 | 0.657 | 1.2 | 0.433 | 0.612 | 0.746 | 0.516
0.665 | 1.05 | 0.806 | EEGRVYVFRLS [ITGAE_Y549_YF] | 0.617 | 1.13 | 0.533 | 1.37 | 0.475 | 0.508 | 0.812 | 0.606 | 1.14 | 0.625 | 0.605 | 0.836 | 0.509
1.11 | 1.28 | 0.794 | RSAGKYDVFFI [MECP2_Y120_L124F_YF] | 0.642 | 1.03 | 0.519 | 1.09 | 0.722 | 1.02 | 0.796 | 0.651 | 1.38 | 0.751 | 0.773 | 1.53 | 0.678
1.92 | 0.944 | 1.2 | RHTRSYDFMEG [FGF7_Y56_YF] | 0.857 | 0.848 | 0.794 | 1.19 | 1.13 | 0.591 | 1.3 | 0.293 | 0.852 | 0.82 | 0.792 | 0.726 | 0.823
0.496 | 0.725 | 0.539 | AKKMKYFEGVS [PRKDC_Y682_I680M] | 0.351 | 0.493 | 0.311 | 0.559 | 0.318 | 0.395 | 0.404 | 0.393 | 0.499 | 0.394 | 0.3 | 0.434 | 0.419
2.09 | 1.41 | 1.27 | CNTIHYNFMCN [TP53_Y234_T230N_YF] | 0.531 | 0.787 | 0.483 | 0.822 | 0.357 | 0.513 | 0.601 | 0.438 | 0.636 | 0.498 | 0.4 | 0.515 | 0.419
0.467 | 0.779 | 0.846 | WASSSYRETPS [SORBS1_Y79_R74W] | 0.409 | 0.57 | 0.389 | 0.57 | 0.39 | 0.438 | 0.391 | 0.411 | 0.45 | 0.362 | 0.353 | 0.444 | 0.402
0.393 | 0.834 | 0.715 | VSFDEYRFRSF [CFTR_Y515_V520F_YF] | 0.484 | 0.903 | 0.502 | 1.12 | 0.45 | 0.514 | 0.982 | 0.612 | 1.11 | 0.561 | 0.568 | 0.739 | 0.569
0.723 | 0.716 | 0.928 | HYPDVYAWEQL [ALX3_Y181_R183W] | 4.12 | 1.14 | 13.2 | 1.31 | 3.27 | 1.19 | 0.404 | 0.913 | 0.847 | 5.25 | 0.865 | 1.16 | 8.69
0.912 | 1.11 | 0.787 | TRSFKCLLLSM [NF1_Y491_Y491C_YF] | 0.492 | 0.969 | 0.496 | 1.08 | 0.444 | 0.531 | 0.713 | 0.551 | 1.09 | 0.4 | 0.581 | 0.609 | 0.474
0.573 | 0.914 | 0.827 | NPQKSYFILLY [WAS_Y83_R86L] | 0.434 | 0.958 | 0.437 | 1.19 | 0.396 | 1.79 | 0.719 | 0.657 | 1.19 | 0.416 | 0.551 | 1.38 | 0.421
0.602 | 0.902 | 0.848 | VSLLPYFPAIM [IPO4_Y518_A513V] | 0.541 | 1.12 | 0.508 | 1.32 | 0.369 | 0.719 | 0.754 | 0.646 | 2.06 | 0.443 | 0.657 | 0.873 | 0.541
0.369 | 0.857 | 0.798 | KVVNEYVTKGQ [MYH7_Y410_G407V] | 0.402 | 0.806 | 0.393 | 0.601 | 0.375 | 0.431 | 0.513 | 0.358 | 0.53 | 0.433 | 0.451 | 0.489 | 0.36
2.08 | 1.03 | 0.988 | SMGHRYIEVFK [HNRNPF_Y82] | 0.407 | 0.744 | 0.438 | 1 | 0.361 | 0.408 | 0.757 | 0.398 | 1.05 | 0.445 | 0.38 | 0.483 | 0.354
0.544 | 1.1 | 0.733 | APSEFYDGDHD [HDAC3_Y414_N411S] | 0.528 | 1.3 | 0.639 | 1.35 | 0.51 | 0.78 | 0.932 | 0.659 | 1.32 | 0.565 | 0.55 | 0.923 | 0.615

Sequence | SH2 binding enrichment (c-Src SH2) | SH2 binding enrichment (Grb2 SH2) | SH2 binding enrichment (SHP2-C SH2) | phosphorylation enrichment (Hck) | phosphorylation enrichment (AncSZ) | phosphorylation enrichment (Fer (mouse)) | phosphorylation enrichment (Fes) | phosphorylation enrichment (MERTK) | phosphorylation enrichment (FGFR1) | phosphorylation enrichment (c-Abl (mouse)) | phosphorylation enrichment (EPHB1) | phosphorylation enrichment (Jak2) | phosphorylation enrichment (c-Src) | phosphorylation enrichment (EPHB2) | phosphorylation enrichment (FGFR3) | phosphorylation enrichment (Fyn)
MTRDIYETDYY [INSR_Y1185] | 0.744 | 0.716 | 0.6 | 1.39 | 2.66 | 0.831 | 1.13 | 0.746 | 1.89 | 0.712 | 1.39 | 1.02 | 2.42 | 1.34 | 1.93 | 1.63
